# Data as given in publication PMC4980424, “Glucansucrase Gtf180-ΔN of Lactobacillus reuteri 180: enzyme and reaction engineering for improved glycosylation of non-carbohydrate molecules” (Applied Microbiology and Biotechnology, 2016).
# Key:
# [1] = substrate: OC[C@H]1O[C@H](Oc2ccccc2O)[C@H](O)[C@@H](O)[C@@H]1O; test: initial rates by TLC densitometry; Michaelis-Menten fit; assay type: biochemical, Limosilactobacillus reuteri; conditions: acceptor substrate, 1000 mM sucrose as donor, pH 4.7, 37 °C
# Excerpt: initial rates by TLC densitometry; Michaelis-Menten fit on Gtf180-ΔN
# [2] = substrate: Oc1ccccc1O; test: initial rates of catechol-G1 formation by TLC densitometry; Michaelis-Menten fit; assay type: biochemical, Limosilactobacillus reuteri; conditions: acceptor substrate, 1000 mM sucrose as donor, pH 4.7, 37 °C
# Excerpt: initial rates of catechol-G1 formation by TLC densitometry; Michaelis-Menten fit on Gtf180-ΔN
Protein,Km [1] [mM],kcat [1] [s⁻¹],kcat/Km [1] [M⁻¹ s⁻¹],Km [2] [mM],kcat [2] [s⁻¹],kcat/Km [2] [M⁻¹ s⁻¹]
"Gtf180-ΔN (Limosilactobacillus reuteri) (protein, N-terminally truncated Gtf180 (ΔN)) INGQQYYIDPTTGQPRKNFLLQNGNDWIYFDKDTGAGTNALKLQFDKGTISADEQYRRGNEAYSYDDKSIENVNGYLTADTWYRPKQILKDGTTWTDSKETDMRPILMVWWPNTVTQAYYLNYMKQYGNLLPASLPSFSTDADSAELNHYSELVQQNIEKRISETGSTDWLRTLMHEFVTKNSMWNKDSENVDYGGLQLQGGFLKYVNSDLTKYANSDWRLMNRTATNIDGKNYGGAEFLLANDIDNSNPVVQAEELNWLYYLMNFGTITGNNPEANFDGIRVDAVDNVDVDLLSIARDYFNAAYNMEQSDASANKHINILEDWGWDDPAYVNKIGNPQLTMDDRLRNAIMDTLSGAPDKNQALNKLITQSLVNRANDNTENAVIPSYNFVRAHDSNAQDQIRQAIQAATGKPYGEFNLDDEKKGMEAYINDQNSTNKKWNLYNMPSAYTILLTNKDSVPRVYYGDLYQDGGQYMEHKTRYFDTITNLLKTRVKYVAGGQTMSVDKNGILTNVRFGKGAMNATDTGTDETRTEGIGVVISNNTNLKLNDGESVVLHMGAAHKNQKYRAVILTTEDGVKNYTNDTDAPVAYTDANGDLHFTNTNLDGQQYTAVRGYANPDVTGYLAVWVPAGAADDQDARTAPSDEAHTTKTAYRSNAALDSNVIYEGFSNFIYWPTTESERTNVRIAQNADLFKSWGITTFELAPQYNSSKDGTFLDSIIDNGYAFTDRYDLGMSTPNKYGSDEDLRNALQALHKAGLQAIADWVPDQIYNLPGKEAVTVTRSDDHGTTWEVSPIKNVVYITNTIGGGEYQKKYGGEFLDTLQKEYPQLFSQVYPVTQTTIDPSVKIKEWSAKYFNGTNILHRGAGYVLRSNDGKYYNLGTSTQQFLPSQLSVQDNEGYGFVKEGNNYHYYDENKQMVKDAFIQDSVGNWYYFDKNGNMVANQSPVEISSNGASGTYLFLNNGTSFRSGLVKTDAGTYYYDGDGRMVRNQTVSDGAMTYVLDENGKLVSESFDSSATEAHPLKPGDLNGQK",88.8 ± 17.1,863 ± 39.3,10200,–,–,–
"Gtf180-ΔN (Limosilactobacillus reuteri; L938F) (protein, N-terminally truncated Gtf180 (ΔN)) INGQQYYIDPTTGQPRKNFLLQNGNDWIYFDKDTGAGTNALKLQFDKGTISADEQYRRGNEAYSYDDKSIENVNGYLTADTWYRPKQILKDGTTWTDSKETDMRPILMVWWPNTVTQAYYLNYMKQYGNLLPASLPSFSTDADSAELNHYSELVQQNIEKRISETGSTDWLRTLMHEFVTKNSMWNKDSENVDYGGFQLQGGFLKYVNSDLTKYANSDWRLMNRTATNIDGKNYGGAEFLLANDIDNSNPVVQAEELNWLYYLMNFGTITGNNPEANFDGIRVDAVDNVDVDLLSIARDYFNAAYNMEQSDASANKHINILEDWGWDDPAYVNKIGNPQLTMDDRLRNAIMDTLSGAPDKNQALNKLITQSLVNRANDNTENAVIPSYNFVRAHDSNAQDQIRQAIQAATGKPYGEFNLDDEKKGMEAYINDQNSTNKKWNLYNMPSAYTILLTNKDSVPRVYYGDLYQDGGQYMEHKTRYFDTITNLLKTRVKYVAGGQTMSVDKNGILTNVRFGKGAMNATDTGTDETRTEGIGVVISNNTNLKLNDGESVVLHMGAAHKNQKYRAVILTTEDGVKNYTNDTDAPVAYTDANGDLHFTNTNLDGQQYTAVRGYANPDVTGYLAVWVPAGAADDQDARTAPSDEAHTTKTAYRSNAALDSNVIYEGFSNFIYWPTTESERTNVRIAQNADLFKSWGITTFELAPQYNSSKDGTFLDSIIDNGYAFTDRYDLGMSTPNKYGSDEDLRNALQALHKAGLQAIADWVPDQIYNLPGKEAVTVTRSDDHGTTWEVSPIKNVVYITNTIGGGEYQKKYGGEFLDTLQKEYPQLFSQVYPVTQTTIDPSVKIKEWSAKYFNGTNILHRGAGYVLRSNDGKYYNLGTSTQQFLPSQLSVQDNEGYGFVKEGNNYHYYDENKQMVKDAFIQDSVGNWYYFDKNGNMVANQSPVEISSNGASGTYLFLNNGTSFRSGLVKTDAGTYYYDGDGRMVRNQTVSDGAMTYVLDENGKLVSESFDSSATEAHPLKPGDLNGQK",91.1 ± 7.3,576 ± 44,6300,85.5 ± 4.0,1870 ± 74.7,21900
"Gtf180-ΔN (Limosilactobacillus reuteri; N1029M) (protein, N-terminally truncated Gtf180 (ΔN)) INGQQYYIDPTTGQPRKNFLLQNGNDWIYFDKDTGAGTNALKLQFDKGTISADEQYRRGNEAYSYDDKSIENVNGYLTADTWYRPKQILKDGTTWTDSKETDMRPILMVWWPNTVTQAYYLNYMKQYGNLLPASLPSFSTDADSAELNHYSELVQQNIEKRISETGSTDWLRTLMHEFVTKNSMWNKDSENVDYGGLQLQGGFLKYVNSDLTKYANSDWRLMNRTATNIDGKNYGGAEFLLANDIDNSNPVVQAEELNWLYYLMNFGTITGNNPEANFDGIRVDAVDMVDVDLLSIARDYFNAAYNMEQSDASANKHINILEDWGWDDPAYVNKIGNPQLTMDDRLRNAIMDTLSGAPDKNQALNKLITQSLVNRANDNTENAVIPSYNFVRAHDSNAQDQIRQAIQAATGKPYGEFNLDDEKKGMEAYINDQNSTNKKWNLYNMPSAYTILLTNKDSVPRVYYGDLYQDGGQYMEHKTRYFDTITNLLKTRVKYVAGGQTMSVDKNGILTNVRFGKGAMNATDTGTDETRTEGIGVVISNNTNLKLNDGESVVLHMGAAHKNQKYRAVILTTEDGVKNYTNDTDAPVAYTDANGDLHFTNTNLDGQQYTAVRGYANPDVTGYLAVWVPAGAADDQDARTAPSDEAHTTKTAYRSNAALDSNVIYEGFSNFIYWPTTESERTNVRIAQNADLFKSWGITTFELAPQYNSSKDGTFLDSIIDNGYAFTDRYDLGMSTPNKYGSDEDLRNALQALHKAGLQAIADWVPDQIYNLPGKEAVTVTRSDDHGTTWEVSPIKNVVYITNTIGGGEYQKKYGGEFLDTLQKEYPQLFSQVYPVTQTTIDPSVKIKEWSAKYFNGTNILHRGAGYVLRSNDGKYYNLGTSTQQFLPSQLSVQDNEGYGFVKEGNNYHYYDENKQMVKDAFIQDSVGNWYYFDKNGNMVANQSPVEISSNGASGTYLFLNNGTSFRSGLVKTDAGTYYYDGDGRMVRNQTVSDGAMTYVLDENGKLVSESFDSSATEAHPLKPGDLNGQK",–,–,–,58.9 ± 6.4,449 ± 4.9,7700
"Gtf180-ΔN (Limosilactobacillus reuteri; L981A) (protein, N-terminally truncated Gtf180 (ΔN)) INGQQYYIDPTTGQPRKNFLLQNGNDWIYFDKDTGAGTNALKLQFDKGTISADEQYRRGNEAYSYDDKSIENVNGYLTADTWYRPKQILKDGTTWTDSKETDMRPILMVWWPNTVTQAYYLNYMKQYGNLLPASLPSFSTDADSAELNHYSELVQQNIEKRISETGSTDWLRTLMHEFVTKNSMWNKDSENVDYGGLQLQGGFLKYVNSDLTKYANSDWRLMNRTATNIDGKNYGGAEFALANDIDNSNPVVQAEELNWLYYLMNFGTITGNNPEANFDGIRVDAVDNVDVDLLSIARDYFNAAYNMEQSDASANKHINILEDWGWDDPAYVNKIGNPQLTMDDRLRNAIMDTLSGAPDKNQALNKLITQSLVNRANDNTENAVIPSYNFVRAHDSNAQDQIRQAIQAATGKPYGEFNLDDEKKGMEAYINDQNSTNKKWNLYNMPSAYTILLTNKDSVPRVYYGDLYQDGGQYMEHKTRYFDTITNLLKTRVKYVAGGQTMSVDKNGILTNVRFGKGAMNATDTGTDETRTEGIGVVISNNTNLKLNDGESVVLHMGAAHKNQKYRAVILTTEDGVKNYTNDTDAPVAYTDANGDLHFTNTNLDGQQYTAVRGYANPDVTGYLAVWVPAGAADDQDARTAPSDEAHTTKTAYRSNAALDSNVIYEGFSNFIYWPTTESERTNVRIAQNADLFKSWGITTFELAPQYNSSKDGTFLDSIIDNGYAFTDRYDLGMSTPNKYGSDEDLRNALQALHKAGLQAIADWVPDQIYNLPGKEAVTVTRSDDHGTTWEVSPIKNVVYITNTIGGGEYQKKYGGEFLDTLQKEYPQLFSQVYPVTQTTIDPSVKIKEWSAKYFNGTNILHRGAGYVLRSNDGKYYNLGTSTQQFLPSQLSVQDNEGYGFVKEGNNYHYYDENKQMVKDAFIQDSVGNWYYFDKNGNMVANQSPVEISSNGASGTYLFLNNGTSFRSGLVKTDAGTYYYDGDGRMVRNQTVSDGAMTYVLDENGKLVSESFDSSATEAHPLKPGDLNGQK",–,–,–,11.0 ± 1.3,203 ± 8.1,18700
